Results as given in patent publication US20090215095A1 (INTRINSIC LIFESCIENCES, published 2009).
Ends that are not written are not given here.

Tests used:
[1] = molecular target: Protein A affinity purified antibodies (anti-hepcidin rabbit sera, source serum not named); assay: competition ELISA with synthetic hepcidin as competitor
[2] = molecular target: polyclonal anti-hepcidin rabbit sera (unpurified serum, source rabbit not named); assay: as above
[3] = molecular target: affinity purified rabbit anti-mature, folded, bioactive hepcidin antibody (KST4); assay: as above
[4] = molecular target: Protein A affinity purified KST4; assay: competitive inhibition ELISA, Protein A purified KST4 at 1:5000 (FIG. 7B)
Method: We collected serum from each of three immunized rabbits (KST3, KST4, KST5). KST3 and 4 are sera from rabbits immunized with hepcidin-KLH conjugates produced using EDC chemistry, while KST5 is sera from conjugates produced using DSS chemistry (FIG. 7A). […] Additional validation of the anti-mature, folded, bioactive hepcidin antibodies described above was performed and their utility in competitive ELISA examined in the presence of varying dilutions of bass serum (FIG. 8 A-C). Note increasing inhibition of signal with increasing amounts of synthetic hepcidin added to tracer. Note the effects of serum on competitive ELISA standard curve (FIG. 8 C) generated with data from (FIG. 8 B) between 10-100 ngs of mature, folded, bioactive hepcidin. […] FIG. 9 is an example of a routine standard curve where hepcidin competitor concentrations are expressed as ng/ml, rather than total ngs added to the competition.

## GCRFCCNCCPNMSGCGVCCRF-OH (disulfide (positions not given here), also called synthetic hepcidin) [synthetic, mature, refolded, bioactive bass hepcidin]
[1]
  percent of signal competed away: ~80%
[2]
  percent of signal competed away: 65%
[3]
  percent of signal competed away: > 90%
[4]
  IC50: ~2.5 ng/mL
